Test [1] deals with T1, SARS-CoV-2 WT (WH01) S protein ectodomain (SARS-CoV-2, UniProt P0DTC2 14-1213). Put plainly: BLI.
Test [2] deals with S1 of SARS-CoV-2 WT S protein (SARS-CoV-2). Put plainly: ELISA. For orientation: An ELISA detects its analyte on a solid surface through an enzyme-linked reagent.
Test [3] has as its target RBD of SARS-CoV-2 WT S protein (SARS-CoV-2, UniProt P0DTC2). Put plainly: ELISA.
In test [4] the target is T1, SARS-CoV-2 WT (WH01) S protein …. As to the kind of experiment: ELISA.
Test [5] addresses SARS-CoV-2 WT (WH01) S protein on S-293T cells (SARS-CoV-2, UniProt P0DTC2). Put plainly: FACS. Background: In flow cytometry, cells or beads pass a laser one at a time.
Another test deals with WT S2. Put plainly: ELISA.
In another test the target is WT NTD. As to the kind of experiment: ELISA.

In publication PMC11141937 (2024) one finds Kd and EC50 data, which are given here for one molecule.

One may read the Kd as the equilibrium constant for the complex coming apart. In general, EC50 refers to the concentration giving half of the maximal effect. A high value points to a need for much substance.

Where only a bound is given, the exact number is not on record here.

B1: O5C2 mAb (antibody, V domains shown)
VH: EVQLVESGGGLIQPGGSLRLSCAASGIIVSRNYMSWVRQAPGKGLEWVSILYAGGSSFYAEPVQGRFTVSRDNSKNTLFLEMNSLRVEDTAVYYCARDLQWGIDIWGQGAMVTVSS
VL: DIQMTQTPPSLSASVGDRVSISCRASQSTGSWLAWYQQKPGKAPKLLIYKTSSLESGVPSRFSGSGSGTEFTLTISSLQPDDVATYYCQHYDTYSSTFGQGTKVEIK
B1 yielded a Kd in test [1] of 0.865 nM. For the same molecule, the EC50 in test [2] was 0.017 nM; in test [3] it was 0.018 nM; in test [4], 0.024 nM; in test [5] it was 0.177 nM; with WT S2, over 1000 nM; with WT NTD it was over 1000 nM.
